How the values were obtained:
[1] = target: T1, human fibrinogen fragments, P02671
T1 chain 1: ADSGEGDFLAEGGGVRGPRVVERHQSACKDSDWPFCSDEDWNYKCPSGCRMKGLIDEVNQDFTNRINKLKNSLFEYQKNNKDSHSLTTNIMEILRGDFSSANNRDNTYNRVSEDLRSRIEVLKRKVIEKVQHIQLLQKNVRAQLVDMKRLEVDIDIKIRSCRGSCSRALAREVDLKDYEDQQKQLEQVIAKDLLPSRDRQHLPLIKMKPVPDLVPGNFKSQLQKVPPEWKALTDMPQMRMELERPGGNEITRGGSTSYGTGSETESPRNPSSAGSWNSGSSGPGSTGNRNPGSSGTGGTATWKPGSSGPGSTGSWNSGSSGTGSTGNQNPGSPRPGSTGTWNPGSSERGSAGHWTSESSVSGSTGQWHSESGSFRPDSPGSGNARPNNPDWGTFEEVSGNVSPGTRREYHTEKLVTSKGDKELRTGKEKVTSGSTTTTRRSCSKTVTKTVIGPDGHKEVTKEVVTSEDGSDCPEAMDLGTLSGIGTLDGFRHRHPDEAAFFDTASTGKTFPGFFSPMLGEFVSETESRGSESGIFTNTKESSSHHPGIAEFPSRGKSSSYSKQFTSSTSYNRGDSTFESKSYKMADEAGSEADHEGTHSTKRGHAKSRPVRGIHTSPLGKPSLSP
T1 chain 2: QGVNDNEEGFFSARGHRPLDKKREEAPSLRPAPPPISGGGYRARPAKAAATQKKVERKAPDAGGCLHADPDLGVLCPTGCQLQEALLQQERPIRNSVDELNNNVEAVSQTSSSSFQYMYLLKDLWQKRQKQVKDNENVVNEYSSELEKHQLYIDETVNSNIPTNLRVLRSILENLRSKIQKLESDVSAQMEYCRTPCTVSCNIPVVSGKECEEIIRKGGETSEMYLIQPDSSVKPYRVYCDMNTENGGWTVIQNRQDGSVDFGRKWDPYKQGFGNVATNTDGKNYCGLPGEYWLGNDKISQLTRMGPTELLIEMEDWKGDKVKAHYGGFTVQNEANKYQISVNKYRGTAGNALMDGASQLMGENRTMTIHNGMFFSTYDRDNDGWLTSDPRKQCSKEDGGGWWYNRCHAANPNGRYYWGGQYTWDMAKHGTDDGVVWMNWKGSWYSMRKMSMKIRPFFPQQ
T1 chain 3: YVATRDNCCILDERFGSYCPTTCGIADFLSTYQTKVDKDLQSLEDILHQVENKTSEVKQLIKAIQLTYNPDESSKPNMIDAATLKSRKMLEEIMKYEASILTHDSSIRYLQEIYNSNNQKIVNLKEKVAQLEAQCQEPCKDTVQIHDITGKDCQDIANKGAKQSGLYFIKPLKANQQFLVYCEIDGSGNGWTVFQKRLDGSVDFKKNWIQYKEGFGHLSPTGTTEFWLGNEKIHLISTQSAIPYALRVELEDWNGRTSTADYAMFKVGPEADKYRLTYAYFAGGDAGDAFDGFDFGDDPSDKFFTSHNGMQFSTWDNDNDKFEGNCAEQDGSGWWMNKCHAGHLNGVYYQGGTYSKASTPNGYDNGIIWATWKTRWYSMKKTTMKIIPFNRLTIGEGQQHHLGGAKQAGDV

Chain of plasminogen (P00747 20-810): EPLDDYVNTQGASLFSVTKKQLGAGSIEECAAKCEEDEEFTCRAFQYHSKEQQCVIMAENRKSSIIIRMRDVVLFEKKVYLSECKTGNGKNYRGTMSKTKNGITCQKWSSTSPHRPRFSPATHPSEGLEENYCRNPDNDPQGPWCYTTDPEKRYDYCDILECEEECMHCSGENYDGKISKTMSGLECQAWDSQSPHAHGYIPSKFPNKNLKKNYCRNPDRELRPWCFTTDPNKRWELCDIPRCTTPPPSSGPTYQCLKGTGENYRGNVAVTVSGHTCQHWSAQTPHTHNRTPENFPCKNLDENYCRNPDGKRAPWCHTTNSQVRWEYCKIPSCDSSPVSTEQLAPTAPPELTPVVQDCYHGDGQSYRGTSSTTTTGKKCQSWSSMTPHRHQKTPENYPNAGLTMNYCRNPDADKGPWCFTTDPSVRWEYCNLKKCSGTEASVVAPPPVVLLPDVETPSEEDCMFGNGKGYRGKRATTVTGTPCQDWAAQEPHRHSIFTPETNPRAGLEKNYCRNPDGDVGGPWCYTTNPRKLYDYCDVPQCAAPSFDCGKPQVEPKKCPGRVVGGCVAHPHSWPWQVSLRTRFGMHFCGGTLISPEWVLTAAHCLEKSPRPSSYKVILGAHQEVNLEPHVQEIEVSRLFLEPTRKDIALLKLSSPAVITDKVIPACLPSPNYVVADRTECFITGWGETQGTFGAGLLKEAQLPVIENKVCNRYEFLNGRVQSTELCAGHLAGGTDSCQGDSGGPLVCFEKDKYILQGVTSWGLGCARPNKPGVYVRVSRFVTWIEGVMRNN

B1: recombinant-K2S (r-K2S), kringle 2 plus serine protease portion of tPA, expressed in non-gpIII fusion form in XM[K2S] (protein)
chain: SEGNSDCYFGNGSAYRGTHSLTESGASCLPWNSMILIGKVYTAQNPSAQALGLGKHNYCRNPDGDAKPWCHVLKNRRLTWEYCDVPSCSTCGLRQYSQPQFRIKGGLFADIASHPWQAAIFAKHRRSPGERFLCGGILISSCWILSAAHCFQERFPPHHLTVILGRTYRVVPGEEEQKFEVEKYIVHKEFDDDTYDNDIALLQLKSDSSRCAQESSVVRTVCLPPADLQLPDWTECELSGYGKHEALSPFYSERLKEAHVRLYPSSRCTSQHLLNRTVTDNMLCAGDTRSGGPQANLHDACQGDSGGPLVCLNDGRMTLVGIISWGLGCGQKDVPGVYTKVTNYLDWIRDNMRP
- enzymatic activity without fibrinogen [1]: Without fibrinogen no enzymatic activity of the r-K2S purified from culture supernatant was observed
- copolymerized plasminogen polyacrylamide gel electrophoresis (plasminogen): Transparent areas of serine protease digested plasminogen were observed only in the ammonium sulfate precipitated culture supernatants of XM[K2S] at 34 and 37 kDa postions
- fibrinogen-dependent enzymatic activity (culture supernatant r-K2S) (plasminogen): 7 IU/ml
- fibrinogen-dependent enzymatic activity (periplasmic r-K2S) (plasminogen): notably low enzymatic activity, which was below the sensitivity of the test (0.25 IU/ml)

B2: standard melanoma tPA 86/670 (protein)
chain: SYQVICRDEKTQMIYQQHQSWLRPVLRSNRVEYCWCNSGRAQCHSVPVKSCSEPRCFNGGTCQQALYFSDFVCQCPEGFAGKCCEIDTRATCYEDQGISYRGTWSTAESGAECTNWNSSALAQKPYSGRRPDAIRLGLGNHNYCRNPDRDSKPWCYVFKAGKYSSEFCSTPACSEGNSDCYFGNGSAYRGTHSLTESGASCLPWNSMILIGKVYTAQNPSAQALGLGKHNYCRNPDGDAKPWCHVLKNRRLTWEYCDVPSCSTCGLRQYSQPQFRIKGGLFADIASHPWQAAIFAKHRRSPGERFLCGGILISSCWILSAAHCFQERFPPHHLTVILGRTYRVVPGEEEQKFEVEKYIVHKEFDDDTYDNDIALLQLKSDSSRCAQESSVVRTVCLPPADLQLPDWTECELSGYGKHEALSPFYSERLKEAHVRLYPSSRCTSQHLLNRTVTDNMLCAGDTRSGGPQANLHDACQGDSGGPLVCLNDGRMTLVGIISWGLGCGQKDVPGVYTKVTNYLDWIRDNMRP
- enzymatic activity without fibrinogen [1]: standard melanoma tPA showed some activity
- copolymerized plasminogen polyacrylamide gel electrophoresis (plasminogen): The positive control lane of standard melanoma tPA also demonstrated enzymatic activity at 66 and 72 kDa positions
